Laboratory results taken from patent US20240174746A1.
Blank lines part the entries; values can stand above or below the binder they belong to.

Key:
mouse TMEM106B (mouse) = mouse TMEM106B (mouse) (UniProt Q80X71); assay: flow cytometry, HEK293 cells transiently transfected with murine TMEM106B
human TMEM106B (human) = human TMEM106B (human) (UniProt Q9NUM4); assay: flow cytometry, HEK293 cells transiently transfected with human TMEM106B
[1] = biological target: cynomolgus (cyno) TMEM106B (cynomolgus); assay: flow cytometry, HEK293 cells transiently transfected with cyno TMEM106B

fold-change in binding over parental HEK293 cells (mouse TMEM106B (mouse)): 1.86 fold
B1: TM-79 (antibody, V domains shown)
VH: EVQLQQSGPELVKPGASVKMSCKASGYTFTNYVMHWLKQKPGQGLEWIAHITPHNDGTKYNEKFKGKATLTSDRSSSTAYMELNSLTSEDSAIYYCARSGQFGRGDYFHYWGQGTTVTVSS
VL: DIVLTQSPASLAVSLGQRATISCRASKSVSTSGSIYIHWYQQKPGQPPKLLIYLTSNLESGVPARFSGSGSGTDFTLNIHPVEEEDAATYYCQHSGELPWTFGGGARLEIK

fold-change in binding over parental HEK293 cells (human TMEM106B (human)): 1.99 fold
B2: TM-82 (antibody, V domains shown)
VH: QVQLQQSGAELVRPGTSVRVSCKASGYAFTNYLIEWIKQRPGQGLEWIGVINPGSGITDYSEKFKGKARLTADKSSSTAYMQLSSLTSDDSAVYFCTRSPFITTVVADYWGQGTTVTVSS
VL: DVVVTQTPLSLPVSFGDQVSISCRSSQSLANTYGNTYLSWYLHTPGQSPQLLIFGISNRFSGVPDRFSGSGSGTDFTLKISTIKPEDLGVYYCLQGTHPPRTFGGGTKLEMK

fold-change in binding over parental HEK293 cells [1]: 1.78 fold
B3: TM-72 (antibody, V domains shown)
VH: QVQLQQPGAELVKPGTSVKLSCKASGSTFTNYWMHWVMQRPGQGLEWIGNIDPSDSDTHYNQKFKDRAKLTVDKSSSTAYMQLSGLTSEDSAVYYCARSRGGYYDYGEAMDYWGQGTSVTVSS
VL: DIVMTQAAPSVPVTPGESVSISCRSSKSLLHTNGNTYLFWFIQRPGQSPHLLIYRKSNLASGVPDRFSGSGSGTAFTLRISRVEAEDVGVYYCMQHLEYPFTFGSGTKLEIK

fold-change in binding over parental HEK293 cells (mouse TMEM106B (mouse)): 1.97 fold
B4: TM-90 (antibody, V domains shown)
VH: QVHLQQSGPELVKPGASVKLSCKASGYPFTSYDINWVKQRPGQGLEWIGWIYPRDGNAKYNEKFKGKATLTVDTSSSTAYMELHSLTSENSAVYFCARVSDYHGGYGMDYWGQGTSVTVSS
VL: DVLMTQTPLSLPVSLGDQASISCRSSQSFVHGNGNTYLEWYLQKPGQSPKLLIYKVSHRFSGVPDRFSGSGSGTDFTLKITRVEAEDLGVYYCFQNSHVPHTFGGGTKLEIK

fold-change in binding over parental HEK293 cells (mouse TMEM106B (mouse)): 1.86 fold
B5: TM-77 (antibody, V domains shown)
VH: QIQLQQSGAELVRPGASVKLSCKASGYTFTDYEMHWVKQTPVHGLEWIGVIDPETGGTAYNQMFKGKATLTADKSSSTAYMDLRSLTSEDSAVYYCVKYGIEGYWGQGTTLTVSS
VL: DVVMTQIPLTLSVTLGQPASISCKSSQSLFHSNGKTYLNWLLQRPGQSPKLLIYMVSKLESGVPDRFSGSGSGTDFTLKISRVEAEDLGVYYCLQVTHFPLTFGAGTKLELK
